For one molecule, response results are on record in article PMC4355418.

What all share (test): peptide binding assay on Ni2+ coated plate (absorbance at 405 nm)
Assay [1] has as its target T1, JMD1 peptide of the ACR4 juxtamembrane domain.
T1 chain: DTRSSKDSAFTKDNG
The note with it: chain shown with the change; protein immobilized on a Ni2+ coated plate; triplicate; SUMO control absorbance subtracted; parent: est. 0.14; read off a plot.

Assay [2] concerns the target T2, pJMD1 peptide (JMD1 with phosphorylated Ser475).
T2 chain: DTRSSKDSAFTKDNG
The note with it: chain shown with the change; protein immobilized on a Ni2+ coated plate; triplicate; SUMO control absorbance subtracted; parent: est. 0.29; read off a plot.

For assay [3], the target named is T3, CRK1 hC peptide (helix-C region of the CRK1 kinase domain).
T3 chain: HRRADKDSAFVNELES
The note with it: chain shown with the change; protein immobilized on a Ni2+ coated plate; triplicate; SUMO control absorbance subtracted; parent: est. 0.39; read off a plot.

B1: SUMO-tagged ACR4 KC (sACR4 KC), ACR4 intracellular domain lacking the JMD, Q9LX29 LLSLL motif replaced with AAAAA (residue numbers not printed) (protein)
chain: FKEESIVGKGSFSCVYKGVLRDGTTVAVKRAIMSSDKQKNSNEFRTELDLLSRLNHAHAAAAAGYCEECGERLLVYEFMAHGSLHNHLHGKNKALKEQLDWVKRVTIAVQAARGIEYLHGYACPPVIHRDIKSSNILIDEEHNARVADFGLSLLGPVDSGSPLAELPAGTLGYLDPEYYRLHYLTTKSDVYSFGVLLLEILSGRKAIDMHYEEGNIVEWAVPLIKAGDINALLDPVLKHPSEIEALKRIVSVACKCVRMRGKDRPSMDKVTTALERALAQLMGNPSSEQPILPTEVVLGSSRMHKKSWRIGSKRSGSENTEFRGGSWITFPSVTSSQRRKSSASEGDVAEEEDEGRKQQEALRSLEEEIGPASPGQSLFLHHNF
In the case of B1, the response in assay [1] came out at 0.042 A405; in assay [2], 0.17 A405; in assay [3], 0.3 A405.
